Data reported in patent US20240117018A1.

Experiments:
Experiment in all cases: cell-based or functional assay
[1] = biological target: HIV-1 Env of pseudovirus 0815.v3.c3 (HIV-1)
[2] = biological target: HIV-1 Env of pseudovirus 211-9 (HIV-1)
[3] = biological target: HIV-1 Env of pseudovirus 231966.c02 (HIV-1)
[4] = biological target: HIV-1 Env of pseudovirus 235-47 (HIV-1)
[5] = biological target: HIV-1 Env of pseudovirus 3016.v5.c45 (HIV-1)
[6] = biological target: HIV-1 Env of pseudovirus 3103.v3.c10 (HIV-1)
[7] = biological target: HIV-1 Env of pseudovirus 3301.v1.c24 (HIV-1)
[8] = biological target: HIV-1 Env of pseudovirus 3817.v2.c59 (HIV-1)
[9] = biological target: HIV-1 Env of pseudovirus 6041.v3.c23 (HIV-1)
[10] = biological target: HIV-1 Env of pseudovirus 620345.c01 (HIV-1)
[11] = biological target: HIV-1 Env of pseudovirus 6480.v4.c25 (HIV-1)
[12] = biological target: HIV-1 Env of pseudovirus 6540.v4.c1 (HIV-1)
[13] = biological target: HIV-1 Env of pseudovirus 6545.v4.c1 (HIV-1)
[14] = biological target: HIV-1 Env of pseudovirus 6811.v7.c18 (HIV-1)
[15] = biological target: HIV-1 Env of pseudovirus 6952.v1.c20 (HIV-1)
[16] = biological target: HIV-1 Env of pseudovirus 89-F1_2_25 (HIV-1)
[17] = biological target: HIV-1 Env of pseudovirus A07412M1.vrc12 (HIV-1)
[18] = biological target: HIV-1 Env of pseudovirus BJOX010000.06.2 (HIV-1)
[19] = biological target: HIV-1 Env of pseudovirus BJOX025000.01.1 (HIV-1)
[20] = biological target: HIV-1 Env of pseudovirus C1080.c03 (HIV-1)
[21] = biological target: HIV-1 Env of pseudovirus C3347.c11 (HIV-1)
[22] = biological target: HIV-1 Env of pseudovirus C4118.c09 (HIV-1)
[23] = biological target: HIV-1 Env of pseudovirus P0402_c2_11 (HIV-1)
[24] = biological target: HIV-1 Env of pseudovirus R1166.c01 (HIV-1)
[25] = biological target: HIV-1 Env of pseudovirus R2184.c04 (HIV-1)
[26] = biological target: HIV-1 Env of pseudovirus R3265.c06 (HIV-1)
[27] = biological target: HIV-1 Env of pseudovirus T251-18 (HIV-1)
[28] = biological target: HIV-1 Env of pseudovirus T255-34 (HIV-1)
[29] = biological target: HIV-1 Env of pseudovirus T278-50 (HIV-1)
[30] = biological target: HIV-1 Env of pseudovirus X1193_c1 (HIV-1)
[31] = biological target: HIV-1 Env of pseudovirus X2088_c9 (HIV-1)
[32] = biological target: HIV-1 Env of pseudovirus X2131_C1_B5 (HIV-1)

Work on 10E8 (antibody) yielded an IC50 neutralization (TZM.bl) [1] of 0.332 µg/mL, an IC80 neutralization (TZM.bl) [1] of 2.87 µg/mL and an IC50 neutralization (TZM.bl) [2] of 1.09 µg/mL. The IC80 neutralization (TZM.bl) [2] was 6.51 µg/mL, the IC50 neutralization (TZM.bl) [3] was 0.191 µg/mL and the IC80 neutralization (TZM.bl) [3] was 3.13 µg/mL. The IC50 neutralization (TZM.bl) [4] was 0.384 µg/mL, the IC80 neutralization (TZM.bl) [4] was 2.07 µg/mL and the IC50 neutralization (TZM.bl) [5] was 0.476 µg/mL. For the same substance, the IC80 neutralization (TZM.bl) [5] was 4.39 µg/mL, the IC50 neutralization (TZM.bl) [6] was over 10 µg/mL and the IC80 neutralization (TZM.bl) [6] was over 10 µg/mL. It also gave an IC50 neutralization (TZM.bl) [7] of 4.63 µg/mL, an IC80 neutralization (TZM.bl) [7] of over 10 µg/mL and an IC50 neutralization (TZM.bl) [8] of 1.18 µg/mL. For the same substance, the IC80 neutralization (TZM.bl) [8] was 5.98 µg/mL, the IC50 neutralization (TZM.bl) [9] was 2.33 µg/mL and the IC80 neutralization (TZM.bl) [9] was 9.77 µg/mL. It also gave an IC50 neutralization (TZM.bl) [10] of 0.455 µg/mL, an IC80 neutralization (TZM.bl) [10] of 6 µg/mL and an IC50 neutralization (TZM.bl) [11] of 8.08 µg/mL. The IC80 neutralization (TZM.bl) [11] was over 10 µg/mL, the IC50 neutralization (TZM.bl) [12] was 1.9 µg/mL and the IC80 neutralization (TZM.bl) [12] was 10 µg/mL. It also gave an IC50 neutralization (TZM.bl) [13] of 1.78 µg/mL, an IC80 neutralization (TZM.bl) [13] of 8.23 µg/mL and an IC50 neutralization (TZM.bl) [14] of 7.54 µg/mL. The IC80 neutralization (TZM.bl) [14] was over 10 µg/mL, the IC50 neutralization (TZM.bl) [15] was 0.343 µg/mL and the IC80 neutralization (TZM.bl) [15] was 1.91 µg/mL. It also gave an IC50 neutralization (TZM.bl) [16] of 1.11 µg/mL, an IC80 neutralization (TZM.bl) [16] of 10 µg/mL and an IC50 neutralization (TZM.bl) [17] of 0.576 µg/mL. For the same substance, the IC80 neutralization (TZM.bl) [17] was 6.05 µg/mL, the IC50 neutralization (TZM.bl) [18] was 0.341 µg/mL and the IC80 neutralization (TZM.bl) [18] was 5.29 µg/mL. For the same substance, the IC50 neutralization (TZM.bl) [19] was 0.107 µg/mL, the IC80 neutralization (TZM.bl) [19] was 6.33 µg/mL and the IC50 neutralization (TZM.bl) [20] was 0.061 µg/mL. The IC80 neutralization (TZM.bl) [20] was 0.731 µg/mL, the IC50 neutralization (TZM.bl) [21] was 0.016 µg/mL and the IC80 neutralization (TZM.bl) [21] was 0.167 µg/mL. For the same substance, the IC50 neutralization (TZM.bl) [22] was 1.62 µg/mL, the IC80 neutralization (TZM.bl) [22] was 9.06 µg/mL and the IC50 neutralization (TZM.bl) [23] was 0.172 µg/mL. For the same substance, the IC80 neutralization (TZM.bl) [23] was 3.29 µg/mL, the IC50 neutralization (TZM.bl) [24] was 0.274 µg/mL and the IC80 neutralization (TZM.bl) [24] was 2.61 µg/mL. It also gave an IC50 neutralization (TZM.bl) [25] of 0.272 µg/mL, an IC80 neutralization (TZM.bl) [25] of 2.46 µg/mL and an IC50 neutralization (TZM.bl) [26] of over 10 µg/mL. It also gave an IC80 neutralization (TZM.bl) [26] of over 10 µg/mL, an IC50 neutralization (TZM.bl) [27] of 2.36 µg/mL and an IC80 neutralization (TZM.bl) [27] of over 10 µg/mL. For the same substance, the IC50 neutralization (TZM.bl) [28] was 0.778 µg/mL, the IC80 neutralization (TZM.bl) [28] was 4.21 µg/mL and the IC50 neutralization (TZM.bl) [29] was 0.949 µg/mL. It also gave an IC80 neutralization (TZM.bl) [29] of 7.46 µg/mL, an IC50 neutralization (TZM.bl) [30] of 0.497 µg/mL and an IC80 neutralization (TZM.bl) [30] of 4.2 µg/mL. It also gave an IC50 neutralization (TZM.bl) [31] of over 10 µg/mL, an IC80 neutralization (TZM.bl) [31] of over 10 µg/mL and an IC50 neutralization (TZM.bl) [32] of 0.189 µg/mL. The IC80 neutralization (TZM.bl) [32] was 0.974 µg/mL.
PG16 (antibody) gave an IC50 neutralization (TZM.bl) [1] of over 50 µg/mL, an IC80 neutralization (TZM.bl) [1] of over 50 µg/mL and an IC50 neutralization (TZM.bl) [2] of 0.029 µg/mL. The IC80 neutralization (TZM.bl) [2] was 0.144 µg/mL, the IC50 neutralization (TZM.bl) [3] was 0.007 µg/mL and the IC80 neutralization (TZM.bl) [3] was 0.031 µg/mL. The IC50 neutralization (TZM.bl) [4] was 0.092 µg/mL, the IC80 neutralization (TZM.bl) [4] was 4.51 µg/mL and the IC50 neutralization (TZM.bl) [5] was over 50 µg/mL. The IC80 neutralization (TZM.bl) [5] was over 50 µg/mL, the IC50 neutralization (TZM.bl) [6] was 25.4 µg/mL and the IC80 neutralization (TZM.bl) [6] was over 50 µg/mL. The IC50 neutralization (TZM.bl) [7] was 0.02 µg/mL, the IC80 neutralization (TZM.bl) [7] was 0.087 µg/mL and the IC50 neutralization (TZM.bl) [8] was 0.008 µg/mL. The IC80 neutralization (TZM.bl) [8] was 0.06 µg/mL, the IC50 neutralization (TZM.bl) [9] was 0.048 µg/mL and the IC80 neutralization (TZM.bl) [9] was 0.256 µg/mL. For the same substance, the IC50 neutralization (TZM.bl) [10] was over 50 µg/mL, the IC80 neutralization (TZM.bl) [10] was over 50 µg/mL and the IC50 neutralization (TZM.bl) [11] was over 50 µg/mL. The IC80 neutralization (TZM.bl) [11] was over 50 µg/mL, the IC50 neutralization (TZM.bl) [12] was 0.035 µg/mL and the IC80 neutralization (TZM.bl) [12] was 0.42 µg/mL. It also gave an IC50 neutralization (TZM.bl) [13] of 0.044 µg/mL, an IC80 neutralization (TZM.bl) [13] of 1.56 µg/mL and an IC50 neutralization (TZM.bl) [14] of over 50 µg/mL. For the same substance, the IC80 neutralization (TZM.bl) [14] was over 50 µg/mL, the IC50 neutralization (TZM.bl) [15] was 21.9 µg/mL and the IC80 neutralization (TZM.bl) [15] was over 50 µg/mL. It also gave an IC50 neutralization (TZM.bl) [16] of 47.6 µg/mL, an IC80 neutralization (TZM.bl) [16] of over 50 µg/mL and an IC50 neutralization (TZM.bl) [17] of 0.343 µg/mL. It also gave an IC80 neutralization (TZM.bl) [17] of over 50 µg/mL, an IC50 neutralization (TZM.bl) [18] of 1.2 µg/mL and an IC80 neutralization (TZM.bl) [18] of over 50 µg/mL. The IC50 neutralization (TZM.bl) [19] was 0.071 µg/mL, the IC80 neutralization (TZM.bl) [19] was over 50 µg/mL and the IC50 neutralization (TZM.bl) [20] was 0.001 µg/mL. For the same substance, the IC80 neutralization (TZM.bl) [20] was 0.003 µg/mL, the IC50 neutralization (TZM.bl) [21] was 0.008 µg/mL and the IC80 neutralization (TZM.bl) [21] was 0.045 µg/mL. It also gave an IC50 neutralization (TZM.bl) [22] of 0.022 µg/mL, an IC80 neutralization (TZM.bl) [22] of 0.143 µg/mL and an IC50 neutralization (TZM.bl) [23] of 0.025 µg/mL. The IC80 neutralization (TZM.bl) [23] was 0.411 µg/mL, the IC50 neutralization (TZM.bl) [24] was 0.28 µg/mL and the IC80 neutralization (TZM.bl) [24] was 4.38 µg/mL. It also gave an IC50 neutralization (TZM.bl) [25] of 0.67 µg/mL, an IC80 neutralization (TZM.bl) [25] of over 50 µg/mL and an IC50 neutralization (TZM.bl) [26] of 0.016 µg/mL. For the same substance, the IC80 neutralization (TZM.bl) [26] was 0.146 µg/mL, the IC50 neutralization (TZM.bl) [27] was 1.72 µg/mL and the IC80 neutralization (TZM.bl) [27] was 44.7 µg/mL. It also gave an IC50 neutralization (TZM.bl) [28] of 0.024 µg/mL, an IC80 neutralization (TZM.bl) [28] of 0.125 µg/mL and an IC50 neutralization (TZM.bl) [29] of 0.227 µg/mL. For the same substance, the IC80 neutralization (TZM.bl) [29] was 18.6 µg/mL, the IC50 neutralization (TZM.bl) [30] was 0.018 µg/mL and the IC80 neutralization (TZM.bl) [30] was 0.11 µg/mL. The IC50 neutralization (TZM.bl) [31] was over 50 µg/mL, the IC80 neutralization (TZM.bl) [31] was over 50 µg/mL and the IC50 neutralization (TZM.bl) [32] was 0.024 µg/mL. It also gave an IC80 neutralization (TZM.bl) [32] of 0.139 µg/mL.
